Key:
pNPB [1] = test: Proxy for plastic degradation [Relative activity]
pNPB [2] = test: Proxy for plastic degradation [kcat/Km (catalytic efficiency)] (µM⁻¹s⁻¹); settings: pH 8
pNPB [3] = test: Proxy for plastic degradation [p-nitrophenol (pNP) release] (% relative activity); settings: pH 8

B1: unnamed (protein)
chain: MAVMTPRRERSSLLSRALQVTAAAATALVTAVSLAAPAHAANPYERGPNPTDALLEASSGPFSVSEENVSRLSASGFGGGTIYYPRENNTYGAVAISPGYTGTEASIAWLGERIASHGFVVITIDTITTLDQPDSRAEQLNAALNHMINRASSTVRSRIDSSRLAVMGHSMGGGGTLRLASQRPDLKAAIPLTPWHLNKNWSSVTVPTLIIGADLDTIAPVATHAKPFYNSLPSSISKAYLELDGATHFAPNIPNKIIGKYSVAWLKRFVDNDTRYTQFLCPGPRDGLFGEVEEYRSTCPF
- Proxy for plastic degradation (pNPB [1]; pH 5): 30%
- Proxy for plastic degradation (pNPB [1]; pH 6): 59%
- Proxy for plastic degradation (pNPB [1]; pH 6.8): 75%
- Proxy for plastic degradation (pNPB [1]; pH 7.5): 92%
- Proxy for plastic degradation (pNPB [1]; pH 8): 100%
- Proxy for plastic degradation (pNPB [1]; pH 8, 25 °C): 29%
- Proxy for plastic degradation (pNPB [1]; pH 8, 30 °C): 35%
- Proxy for plastic degradation (pNPB [1]; pH 8, 37 °C): 50%
- Proxy for plastic degradation (pNPB [1]; pH 8, 40 °C): 69%
- Proxy for plastic degradation (pNPB [1]; pH 8, 45 °C): 80%
- Proxy for plastic degradation (pNPB [1]; pH 8, 50 °C): 93%
- Proxy for plastic degradation (pNPB [1]; pH 8, 55 °C): 100%
- Proxy for plastic degradation (pNPB [1]; pH 8, 60 °C): 92%
- Proxy for plastic degradation (pNPB [1]; pH 8, 70 °C): 78%
- Proxy for plastic degradation (pNPB [1]; pH 8, 80 °C): 65%
- Proxy for plastic degradation (pNPB [1]; pH 9): 75%
- Proxy for plastic degradation (pNPB [2]): 2.84
- Proxy for plastic degradation (pNPB [3]; 25 °C): 29
- Proxy for plastic degradation (pNPB [3]; 30 °C): 35.5
- Proxy for plastic degradation (pNPB [3]; 37 °C): 51
- Proxy for plastic degradation (pNPB [3]; 40 °C): 68.5
- Proxy for plastic degradation (pNPB [3]; 45 °C): 80.5
- Proxy for plastic degradation (pNPB [3]; 50 °C): 93.5
- Proxy for plastic degradation (pNPB [3]; 55 °C): 100
- Proxy for plastic degradation (pNPB [3]; 60 °C): 91.5
- Proxy for plastic degradation (pNPB [3]; 70 °C): 79
- Proxy for plastic degradation (pNPB [3]; 80 °C): 67
- Proxy for plastic degradation (pNPB [3]; 15 h): 93
- Proxy for plastic degradation (pNPB [3]; 30 h): 47
- Proxy for plastic degradation (pNPB [3]; 40 h): 38

B2: unnamed (protein)
chain: MPPHAARPGPAQNRRGRAMAVITPRRERSSLLSRALRFTAAAATALVTAVSLAAPAHAANPYERGPNPTDALLEARSGPFSVSEERASRFGADGFGGGTIYYPRENNTYGAVAISPGYTGTQASVAWLGERIASHGFVVITIDTNTTLDQPDSRARQLNAALDYMINDASSAVRSRIDSSRLAVMGHSMGGGGTLRLASQRPDLKAAIPLTPWHLNKNWSSVRVPTLIIGADLDTIAPVLTHARPFYNSLPTSISKAYLELDGATHFAPNIPNKIIGKYSVAWLKRFVDNDTRYTQFLCPGPRDGLFGEVEEYRSTCPF
- Proxy for plastic degradation (pNPB [1]; pH 5): 35%
- Proxy for plastic degradation (pNPB [1]; pH 6): 60%
- Proxy for plastic degradation (pNPB [1]; pH 6.8): 75%
- Proxy for plastic degradation (pNPB [1]; pH 7.5): 90%
- Proxy for plastic degradation (pNPB [1]; pH 9): 75%
- Proxy for plastic degradation (pNPB [2]): 1.35
- Proxy for plastic degradation (pNPB [3]; 0 h): 100
- Proxy for plastic degradation (pNPB [3]; 25 °C): 31
- Proxy for plastic degradation (pNPB [3]; 30 °C): 37.5
- Proxy for plastic degradation (pNPB [3]; 37 °C): 45
- Proxy for plastic degradation (pNPB [3]; 40 °C): 70.5
- Proxy for plastic degradation (pNPB [3]; 45 °C): 75
- Proxy for plastic degradation (pNPB [3]; 50 °C): 95.5
- Proxy for plastic degradation (pNPB [3]; 55 °C): 100
- Proxy for plastic degradation (pNPB [3]; 60 °C): 93.5
- Proxy for plastic degradation (pNPB [3]; 70 °C): 74
- Proxy for plastic degradation (pNPB [3]; 80 °C): 67.5
- Proxy for plastic degradation (pNPB [3]; 15 h): 98
- Proxy for plastic degradation (pNPB [3]; 30 h): 50
- Proxy for plastic degradation (pNPB [3]; 40 h): 40
